The values that follow come from publication doi:10.1101/2021.11.23.469700, “Zika virus-specific IgM elicited during pregnancy exhibits ultrapotent neutralization” (bioRxiv, 2021).

The term EC50 denotes the concentration needed to bring the measured effect to its halfway point. As a reminder, the Kd is the constant that tells how readily two partners part at equilibrium. What is called koff is the rate constant with which the complex falls apart. Read a high koff as fast dissociation. As a reminder, the stoichiometry N is the number of molecules, sites or subunits per partner or assembly.

In experiment [1] the target is DENV3 (Philippines) virion (Dengue virus 3 Philippines (H87/1956 …, UniProt P27915)). Kind of experiment: ELISA; virion capture ELISA: virions captured on plates coated with 4G2 antibody; purified mAbs in 5-fold serial dilutions from 100 ug/mL, 1 hour at 37°C; HRP anti-human Ig; OD450. Particulars: one partner purified. Background: ELISA stands for enzyme-linked immunosorbent assay.

A further experiment deals with DENV4 (H241) virion (Dengue virus 4 H241, UniProt Q58HT7, strain). Described as above. Particulars: one partner purified.
The target in another experiment is T1, DENV1 (Hawaii) virion (Dengue virus 1 Hawaii (BEI NR-82), UniProt B5AGU1, strain).
T1 construct: also called DENV1 (Hawaii NR-82)
Described as above. Particulars: one partner purified.

The target in experiment [2] is T2, whole Zika PRVABC59 virion (Zika virus PRVABC59, UniProt A0A0X1LH65, strain).
T2 construct: also called ZIKV PRVABC59; whole ZIKV virion; source: ZIKV PRVABC59 from BEI, grown in Vero-81 cells, filtered cell supernatant
The experiment is described as above. Particulars: one partner purified.

The target of experiment [3] is DENV2 (New Guinea C) virion (Dengue virus 2 New Guinea C, UniProt P14340, strain). The description is as above. Particulars: one partner purified.
For experiment [4], the target named is T3, ZIKV H/PF/2013 envelope (E) protein dimer (Zika virus H/PF/2013, UniProt A0A024B7W1, strain).
T3 construct: also called ZIKV E dimer; his-tagged recombinant E protein dimer; source: recombinant
As to the kind of experiment: BLI; Octet Red96, 25°C, PBS pH 7.4; mAb captured on anti-human Ig AR2G tips; ZIKV E protein dimer 50-0.78 ug/mL; fast kinetic components of the heterogeneous ligand model fit; single measurement. Particulars: both partners purified. In general terms: In BLI a coated tip is dipped into the sample, and binding shifts an interference pattern.

For a further experiment, the target named is T4, Scl-70 (Bos taurus (assumed), UniProt A0AAA9TV68).
T4 construct: source: bought: Immunovision, SCL-3000
T4 sequence (P11387 whole entry): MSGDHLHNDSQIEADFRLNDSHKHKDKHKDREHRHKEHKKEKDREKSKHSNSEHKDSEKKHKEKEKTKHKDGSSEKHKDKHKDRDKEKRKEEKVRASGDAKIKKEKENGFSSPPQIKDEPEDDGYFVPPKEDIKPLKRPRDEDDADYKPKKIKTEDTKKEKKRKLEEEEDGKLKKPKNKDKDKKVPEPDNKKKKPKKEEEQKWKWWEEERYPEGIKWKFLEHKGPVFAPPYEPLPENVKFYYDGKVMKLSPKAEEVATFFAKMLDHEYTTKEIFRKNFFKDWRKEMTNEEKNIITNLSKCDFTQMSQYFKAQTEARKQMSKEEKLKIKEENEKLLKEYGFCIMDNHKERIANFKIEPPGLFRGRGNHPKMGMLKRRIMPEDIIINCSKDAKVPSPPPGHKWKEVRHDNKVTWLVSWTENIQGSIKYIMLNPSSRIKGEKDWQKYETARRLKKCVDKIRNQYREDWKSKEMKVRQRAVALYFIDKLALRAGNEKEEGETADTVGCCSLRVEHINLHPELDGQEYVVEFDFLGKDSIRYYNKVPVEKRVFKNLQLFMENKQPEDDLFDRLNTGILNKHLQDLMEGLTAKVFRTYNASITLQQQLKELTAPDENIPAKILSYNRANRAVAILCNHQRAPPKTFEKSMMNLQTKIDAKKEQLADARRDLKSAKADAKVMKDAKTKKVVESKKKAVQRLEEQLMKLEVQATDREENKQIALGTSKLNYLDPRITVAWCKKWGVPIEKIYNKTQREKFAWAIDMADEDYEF
As to the kind of experiment: ELISA; autoantigen ELISA: purified antigens coated in 0.1M sodium bicarbonate; mAbs in 3-fold serial dilutions from 10 ug/ml, 1 hour at room temperature; HRP anti-human IgG, IgM and H+L. Particulars: both partners purified.

The target of a further experiment is T5, Centromere B (Homo sapiens, UniProt P07199).
T5 construct: source: bought: Prospec, PRO-390
T5 sequence (P07199 whole entry): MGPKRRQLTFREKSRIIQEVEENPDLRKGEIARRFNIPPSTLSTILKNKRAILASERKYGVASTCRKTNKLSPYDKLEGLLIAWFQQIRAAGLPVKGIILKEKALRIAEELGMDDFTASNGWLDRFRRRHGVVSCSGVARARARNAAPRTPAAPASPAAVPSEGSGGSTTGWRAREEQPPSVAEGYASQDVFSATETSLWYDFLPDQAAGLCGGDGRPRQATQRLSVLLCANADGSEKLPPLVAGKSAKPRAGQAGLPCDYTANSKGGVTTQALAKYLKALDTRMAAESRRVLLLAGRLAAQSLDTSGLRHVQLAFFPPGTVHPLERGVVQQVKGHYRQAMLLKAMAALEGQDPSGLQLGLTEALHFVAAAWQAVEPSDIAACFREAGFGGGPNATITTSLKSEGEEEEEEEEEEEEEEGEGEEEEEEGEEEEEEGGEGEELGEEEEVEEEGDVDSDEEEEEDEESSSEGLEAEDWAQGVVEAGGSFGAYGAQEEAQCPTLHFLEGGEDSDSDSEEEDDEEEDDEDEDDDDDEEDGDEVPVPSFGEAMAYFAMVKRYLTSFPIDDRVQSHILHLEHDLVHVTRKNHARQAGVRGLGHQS
Described as above. Particulars: both partners purified.

The target of the next experiment is Jo-1 (Bos taurus (assumed), UniProt Q2KI84). Described as above. Particulars: both partners purified.
Jo-1, sequence (P12081 whole entry): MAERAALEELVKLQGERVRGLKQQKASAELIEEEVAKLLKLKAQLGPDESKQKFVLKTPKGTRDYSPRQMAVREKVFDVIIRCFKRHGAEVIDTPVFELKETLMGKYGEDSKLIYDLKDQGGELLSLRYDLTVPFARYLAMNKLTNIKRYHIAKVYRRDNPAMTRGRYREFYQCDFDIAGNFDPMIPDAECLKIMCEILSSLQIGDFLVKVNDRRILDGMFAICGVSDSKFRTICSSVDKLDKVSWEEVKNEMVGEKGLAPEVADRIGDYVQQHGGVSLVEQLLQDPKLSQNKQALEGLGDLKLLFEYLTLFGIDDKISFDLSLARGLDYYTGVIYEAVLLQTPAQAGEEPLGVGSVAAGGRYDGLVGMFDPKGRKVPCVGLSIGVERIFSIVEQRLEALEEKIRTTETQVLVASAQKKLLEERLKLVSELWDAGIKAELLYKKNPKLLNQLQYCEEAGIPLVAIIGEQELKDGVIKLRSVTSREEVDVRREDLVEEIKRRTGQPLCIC
The target of a further experiment is T6, SSB (Bos taurus (assumed), UniProt P10881).
T6 construct: source: bought: Immunovision, SSB-3000
T6 sequence (P05455 whole entry): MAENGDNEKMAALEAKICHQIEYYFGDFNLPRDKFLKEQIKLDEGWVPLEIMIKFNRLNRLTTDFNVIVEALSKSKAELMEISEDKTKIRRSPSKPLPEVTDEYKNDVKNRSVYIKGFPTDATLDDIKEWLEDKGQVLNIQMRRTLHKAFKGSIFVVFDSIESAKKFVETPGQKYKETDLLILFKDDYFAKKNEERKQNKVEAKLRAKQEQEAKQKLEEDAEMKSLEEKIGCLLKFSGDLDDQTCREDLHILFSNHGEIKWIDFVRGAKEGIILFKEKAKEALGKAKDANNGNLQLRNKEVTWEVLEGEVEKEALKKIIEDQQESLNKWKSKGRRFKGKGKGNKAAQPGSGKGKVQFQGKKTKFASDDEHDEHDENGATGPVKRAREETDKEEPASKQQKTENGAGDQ
The experiment is described as above. Particulars: both partners purified.

Experiment [5] deals with T7, ZIKV H/PF/2013 envelope (E) protein monomer (Zika virus H/PF/2013, UniProt A0A024B7W1, strain).
T7 construct: also called ZIKV E monomer
As to the kind of experiment: ELISA; recombinant E protein ELISA: DH1017 mAbs immobilised at 0.5 ug/mL in TBS; his-tagged recombinant E protein in 2-fold dilutions from 20 ug/mL, 1 hour at 37°C; anti-his HRP; OD450. Particulars: both partners purified.

In experiment [6] the target is T3, ZIKV H/PF/2013 envelope (E) protein …. The experiment is described as above. Particulars: both partners purified.
The target of a further experiment is T8, ZIKV H/PF/2013 virion (Zika virus H/PF/2013, strain).
T8 construct: also called ZIKV H/PF/2013 particles; Zika virion; copies: 180 +
Kind of experiment: cryo-EM structure; purified virus and DH1017.Fab incubated on ice for 2 hours; single particle reconstruction with icosahedral symmetry, 4104 particles, 5.3 Å. Particulars: both partners purified.

B1: DH1017.IgM (antibody, V domains shown)
VH: QVQLQESGPGLVKPSQTLSLTCAVSGGSISSGDSYWSWIRQHPGKGLEWIGSIYYSGSTYYNPSLKSRVTIPIDTSKNQFSLKLSSVTAADTAVYYCARHVGDLRVNDAFDIWGQGTMVTVSS
VL: QSVLTQPPSVSAAPGQKVTISCSGSSSNIGNNFVSWYQRLPGTPPKLLIYDSDKRPSGIPDRFSGSKSGTSATLGITGLQTGDEGDYYCGTWDRSLSVVVFGGGTKLTVL
notes: also called mAb DH1017.IgM; copies: 10 + 10
Regarding B1, the binding result is on record as “no binding (tested: 100 ug/mL (start of the dilution series))” in experiment [1]; “no binding (tested: 100 ug/mL (start of the dilution series))” with DENV4 (H241) virion; “no binding (tested: 100 ug/mL (start of the dilution series))” with DENV1 (Hawaii) virion; “no binding (tested: 100 ug/mL (start of the dilution series))” in experiment [3]; “no binding (tested: 10 ug/ml (start of the dilution series))” in the experiment with Scl-70; “no binding (tested: 10 ug/ml (start of the dilution series))” in the experiment with Centromere B. Further, the binding result with Jo-1 and with SSB was “no binding (tested: 10 ug/ml (start of the dilution series))” throughout. For the same molecule, the EC50 in experiment [2] was determined as 0.022 nM; in [5] it was 0.202 nM; in [6], 0.091 nM. Also, binding in experiment [4] was characterised by a dissociation constant (Kd) of 106 nM. For the same molecule, in [4], the koff turned out to be 0.0103 s⁻¹.

B2: DH1017.IgG (antibody, V domains shown)
VH: B1 VH
VL: B1 VL
notes: IgG1; also called recombinant DH1017.IgG; IgG1 isoform of DH1017; source: Expi 293i cells, co-transfected heavy and light chain plasmids, purified (Protein A resin)
Regarding B2, the EC50 was found to be 0.112 nM in [2], 0.463 nM in experiment [5] and 0.929 nM in experiment [6]. The same molecule yielded a Kd in [4] of 123 nM. The same molecule yielded a koff in [4] of 0.0091 s⁻¹. Moreover, the binding result in the experiment with Scl-70, with Centromere B, in the experiment with Jo-1 and in the experiment with SSB was “no binding (tested: 10 ug/ml (start of the dilution series))” each time.

B3: DH1017.Fab (Fab, V domains shown)
VH: B1 VH
VL: B1 VL
notes: also called DH1017 Fab fragment; Fab DH1017; source: Expi 293i cells, co-transfected heavy and light chain plasmids, purified (LambdaFabSelect agarose beads)
In the case of B3, in the experiment with ZIKV H/PF/2013 virion, the “stoichiometry N” value stood at 1.5 Fab per asymmetric unit. The binding result with Scl-70, in the experiment with Centromere B, with Jo-1 and in the experiment with SSB was “no binding (tested: 10 ug/ml (start of the dilution series))” in each case. Also, the EC50 in experiment [5] stood at 1.24 nM; in experiment [6] it was 25.1 nM.
